# The nanobody polyreactivity screen of Harvey et al. (2022)
# Test: yeast display, Sf9 membrane polyspecificity reagent, FACS + sequencing; frameworks hold sequencing errors
# Procedure, shortened: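 After 36–48 hours of galactose induction, yeast (Saccharomyces cerevisiae BJ5465) displaying a synthetic nanobody library were stained at 4 °C for 1 hour with 10% biotinylated, detergent-solubilized Sf9 membrane reagent. Streptavidin microbeads enriched the stained cells before FACS sorting into low and high (top ~1%) gates on anti-HA and streptavidin fluorescence. Each clone's polyreactivity label reflects its gate of origin.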
row,Sequence,polyreactivity (PSR sort gate)
1,QVQLVESGGGLVQAGGSLRLRCAASGRIFWSNAMGWYRQAPGKERELVAAISSGGSTNYADSEKGRFTISRDNAKNTVYLQMNSLKPEDTEVYYCATRGIQRGFSRWGGLDYWGQVTQVTVSS,low polyreactivity
2,QVQLVESGGGLVQAGGSLRLRCAASGRNFVANGKGWYRQAPGKERELVAAINDGDDTYYADSVKGRFTISRDNAQNTVYLQMNSLKPEDTEVYYCAADIIYGYEVYTYTSDYWGQGTQVTVSS,low polyreactivity
3,QVQLVESGGGLVQAGGSLRLRCAASGRTFDKYAMGWYRQAPGKERELVAAISYDAGRTYYADSVKGRFTISRDNAKNTVYLQMNSLKPEDNAVYFCNAVRFRGFGWGQGTQVTVSS,high polyreactivity
4,QVQLVESGGGLVQAGGSLRLRCAASGRTFGRYAMGWYRQAPGKERELVAAISTSGGSTFYADSVKGRITISRDNAKNTVYLLMNSLKPEDTAVYYCAADYRRFWGRYGYWGQGTQVTVSS,high polyreactivity
5,QVQLVESGGGLVQAGGSLRLRCAASGRTFHAYVMGWYIQAPVKERELVADISSGGDTYADSVKGRFTISRDNAKNTVYLQMNSLKPEDTAVYYCAVDLIQDESGYWGQGTQVTVSS,low polyreactivity
6,QVQLVESGGGLVQAGGSLRLRCAASGRTFRRNAMGWYRQAPGKERELVAGISWGGGSTYYADSVKGRFTISRDNAKNTVYLQMNSLKPEDTAVYYCAASGYFYRAYGYWGQGTQVTVSS,high polyreactivity
7,QVQLVESGGGLVQAGGSLRLRCAASGRTIASYTMGWYRQAPGKEREWVAAISKSGGSTYYADSVKGRFTNSRDNAKNTVYLQMNSLKPEDTAVYYCAKRRSGNVRKYDYWGQGTQVTVSS,high polyreactivity
8,QVQLVESGGGLVQAGGSLRLRCAASGRTVVYYAMGWSRPAAGKETEFVATITSSGGSTYYADSVKGRFTISRDNAKNSVYLQMNSLKPEDTAVNYCAASPNIGYSKVSKYYYRGQGTQVTVSS,high polyreactivity
9,QVQLVESGGGLVQAGGSLRLRCAASGSIFFHNAMGWYRQAPVKERELVATINRSDGTYYADSVKGRFTISRDNAKNTVYFQMNSLKPEDTAVYYCAVDHSFNDELDYWGQGTQVTVSS,low polyreactivity
10,QVQLVESGGGLVQAGGSLRLRCAASGSIFKGYAMGSYRQAPGKERELVAAIRGSGGSSYYADSVKGRFTISRDNAKNTVYFQLISLTPEDTAFYYCAAVAYTGGPRKLGFNYWGQATQVTVSS,high polyreactivity
11,QVQLVESGGGLVQAGGSLRLRCAASGSIFPLYAMGWYRQAPGKERELVAAITSSGGRTYYADSVKGRFTISRDNAKNTVYLQMNSLKPEDTAVYYCNAGYYVRRDYDYWGQGTQVTVSS,low polyreactivity
12,QVQLVESGGGLVQAGGSLRLRCAASGSIFPPYAMGWYRQAPGKERELVAVISFSSGRTYYADSVKGRFTISRDNAKNTVYLQMNSQKPEDTAVYYCAADYESRNKFDYWGQGTQVTVTS,low polyreactivity
13,QVQLVESGGGLVQAGGSLRLRCAASGSIFPYNAMGWYRQAPGKERELVAAISKRGRSTYYADSVKGRFTISRDNAKNTVYLHMNSLKPEDTAVYYSAARYPPYRSWYSYDYWGQGTQVTVSS,low polyreactivity
14,QVQLVESGGGLVQAGGSLRLRCAASGSIFRVYAMGWYRQAPGKERELVATITWNGGSTYYADSVKGRFTISRDNAKNTVYLQMNSLKPEDTAVFYCAKPSSWRRVLPIDYWGQGTQVTVSS,low polyreactivity
15,QVQLVESGGGLVQAGGSLRLRCAASGSIFRYNPMGWYRQAPGKERELVAPISWSGGHTYYADSVKGRFTISRDNAKNTDYLQLNSLKPEDTAVYYWATVPRKTPGNAELDYWGQGTQVTVSS,high polyreactivity
16,QVQLVESGGGLVQAGGSLRLRCAASGSIFWYYTMGWYRQAPGIERELVATLTRSGSRTYDADSVKGRCTISRDNAKNTVYLQMNSLKPEDTAVYYCAKDYGPWTYDYWGQGTQVTVSS,low polyreactivity
17,QVQLVESGGGLVQAGGSLRLRCAASGSIFYRNPMGWYRQAPGKESELVAAITSRGGRTYYADSVKGRFTISRDNAKNTVYLQMNSLKPEDTAVYYCNKRDVYSTSDYDYWGQGTQVTVSS,high polyreactivity
18,QVQLVESGGGLVQAGGSLRLRCAASGSISWLYSMGCYSQAPGKERELVAAISWGGGDTYYADSVKGRFTISRDNAKNTVYLQMHSLKPEDTEVFYCAADSDYYWLAYDYWGQGTQVTLSS,low polyreactivity
19,QVQLVESGGGLVQAGGSLRLRCAASGSTFANYAMGWYRQAPGKERELVAAISVGDGSTYYADSVKGRFTISRDNAKNTVYLQMNILKPEDTAVYYCSRVRGGYDSWGQGTQVTVSS,high polyreactivity
20,QVQLVESGGGLVQAGGSLRLRCAASGSTFGRYAKVWYRQAPGKEREFVAAISWSGGSTYYADSVKGRFTISRDNAKNTVYLQMNSLKPEDTAVYYCARYSWRGLAEFDSWGQGTQVTVSS,low polyreactivity
21,QVQLVESGGGLVQAGGSLRLRCAASGSTFQTYAMGWYRQAPGKERELVAAITSGGATNYADSVKGRFTISRDNAKNTVFLQMNFLTPEVTAVYYCAVRLIDQTSDHRLQYDYWGQGTQVTVSS,low polyreactivity
